Read-outs that look alike come from different tables or passages of the source. Ends that are not written are not given here. * marks the point of attachment. Biotin = O=C1N[C@H]2[C@H](CS[C@H]2CCCCC(=O)*)N1
T1: L190V-MIM peptide (F180-G201 of MYB29, L190V) (Arabidopsis thaliana, UniProt Q9FLR1 180-201, L190V, biotin on the N-terminus)
T1 construct: MYB29, Arabidopsis thaliana, 22 residues F180-G201; source: synthetic peptide (TAG Copenhagen A/S)
T1 peptide (looked up): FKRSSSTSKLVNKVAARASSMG

T2: MYC4 N-terminal domain (L55-N253) (Arabidopsis thaliana, UniProt O49687 55-253)
T2 chain: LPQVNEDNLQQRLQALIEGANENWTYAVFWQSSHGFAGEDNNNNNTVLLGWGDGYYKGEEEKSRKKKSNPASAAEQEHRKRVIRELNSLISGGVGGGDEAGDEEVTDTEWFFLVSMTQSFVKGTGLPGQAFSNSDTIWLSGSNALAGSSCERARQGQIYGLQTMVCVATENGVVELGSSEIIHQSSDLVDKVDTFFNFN

B1: MYB75 DBD: fragment comprising the MYB DBD (residues M1-P114) (protein, UniProt Q9FE25 1-114, looked up, fragment)
chain: MEGSSKGLRKGAWTTEEDSLLRQCINKYGEGKWHQVPVRAGLNRCRKSCRLRWLNYLKPSIKRGKLSSDEVDLLLRLHRLLGNRWSLIAGRLPGRTANDVKNYWNTHLSKKHEP
B2: MYC4 N-terminal domain (L55-N253) (domain or fragment, Arabidopsis thaliana, UniProt O49687 55-253, looked up)
chain: T2 chain
notes: MYC4, Arabidopsis thaliana, N-terminal domain with the JID, residues L55-N253 (AA55-253); recombinant protein of 22.7 kDa; expressed from pET52u; source: E. coli BL21(DE3), purified (HisTrap HP IMAC, dialysed to PBS pH 7.4 with 1 mM DTT); not shown: 6xHis, C-terminal, kept
B3: WT-MIM peptide (F180-G201 of MYB29) (peptide, UniProt Q9FLR1 180-201, looked up)
peptide: Biotin-FKRSSSTSKLLNKVAARASSMG
notes: source: synthetic peptide (TAG Copenhagen A/S)
B4: non-MYB region of MYB75: non-MYB region of MYB75 (residues K110-D248) (protein)
chain: KKHEPCCKIKMKKRDITPIPTTPALKNNVYKPRPRSFTVNNDCNHLNAPPKVDVNPPCLGLNINNVCDNSIIYNKDKKKDQLVNNLIDGDNMWLEKFLEESQEVDILVPEATTTEKGDTLAFDVDQLWSLFDGETVKFD
modifications: left off: NubG and FRB (from the vector pFRB), end not stated, kept

Experiments:
GL3 [1] = assay: Split-ubiquitin assay, GL3 as bait; format: cell-based, Arabidopsis thaliana; settings: yeast, SD-AHLW growth
Protocol: The rapamycin-compatible yeast strain NMY51 TOR1-1 Δfpr1 ([35]) was transformed according to DUALhunter™ kit instructions (Dualsystems biotech). Briefly, overnight 2×YPAD cultures were diluted to OD600 = 0.2, and incubated at 30°C, 150 RPM for 4–6 h in 2×YPAD, before harvesting the cells by centrifugation at 700 g for 5 min. The cells were washed with H2O, then 0.1 M LiOAc, before resuspending in 0.1 M LiOAc with 15% glycerol. The competent cells were then aliquoted and stored at −80°C until transformation. For double transformation with bait and prey plasmids, competent cells were thawed on ice, and mixed with transformation mix (240 μl 50% PEG-3350, 35 μl 1 M LiOAc and 25 μl 2 mg/ml ssDNA per transformation) and 200 ng of each plasmid, before being exposed to a 42°C heat shock in a water bath for 45 min. The cells were then chilled on ice for a few minutes, sedimented by centrifugation (3000 g, 1 min), resuspended in sterile H2O, plated on SD-LW plates and grown at 30°C for 2–3 days.
For drop tests, cells from three individual colonies of each bait/prey combination were grown overnight in liquid SD-LW media. Next day, culture densities were normalized to OD600 = 0.05, dilution series (OD600 = 0.05, OD600 = 0.005, OD600 = 0.0005 and OD600 = 0.00005) were spotted on square plates (SD-LW, SD-AHLW and SD-AHLW+Rapa) and grown for 2 days at 30°C before taking pictures.
To identify interaction sites mediating specific MYB–MYC complex formation, we selected two TFs from each family. These were MYB28 and MYB29 from MYB subgroup 12, and two of their partner bHLH TFs, MYC3 and MYC4. To define the region mediating the interactions we applied a chemically inducible dimerization split-ubiquitin system ([35]). […] This is used as an in-built positive control for correct expression and functionality of the prey fusion protein and thereby reduces the incidence of false negatives.

GL3 [2] = settings: ref [32]; cited from earlier work
Source text: To identify interaction sites mediating specific MYB–MYC complex formation, we selected two TFs from each family. These were MYB28 and MYB29 from MYB subgroup 12, and two of their partner bHLH TFs, MYC3 and MYC4. To define the region mediating the interactions we applied a chemically inducible dimerization split-ubiquitin system ([35]). […] As controls, we included the interaction between GL3 and MYB75, where a fragment c ...

[3] = biological target: T1, L190V-MIM peptide (F180-G201 of MYB29, …); assay: BLI; biotinylated peptide (1 μM) immobilised on streptavidin biosensors; MYC4Nt 130 to 0.1 μM; PBS pH 7.4, 1 mM DTT, 0.05% bovine serum albumin; BLItz; equilibrium responses fitted to a Hill equation; settings: both partners purified
[4] = biological target: T2, MYC4 N-terminal domain (L55-N253); assay: BLI
[5] = biological target: B2; assay: BLI; biotinylated peptide (1 μM) immobilised on streptavidin biosensors; MYC4Nt 130 to 0.1 μM; PBS pH 7.4, 1 mM DTT, 0.05% bovine serum albumin; BLItz; equilibrium responses fitted to a Hill equation; settings: both partners purified

| Molecule | interaction with GL3 (in words) (GL3 [1]) | interaction with GL3 (in words) (GL3 [2]) | Kd [4] [µM] | other results |
| --- | --- | --- | --- | --- |
| B1 | results in growth on SD-AHLW plates | sufficient for this interaction | – | – |
| B2 | – | – | – | fold weaker affinity than the WT-MIM peptide [3]: ~10 fold |
| B3 | – | – | 1.9 | Kd [5]: 2.7 ± 0.8 µM |
| Biotin-FKRSSSTSKLVNKVAARASSMG [L190V-MIM peptide (F180-G201 of MYB29, L190V)] | – | – | 33 | – |
| B4 | does not | unable to interact | – | – |
